Experimental findings from patent US20150147384A1, “Sustained Delivery of Molecules Using Peptide Surfactants and Uses Thereof” (Massachusetts Institute of Technology, priority 2012, published 2015) are described below.

Where “and” joins values, the source holds several entries; their conditions need not be identical. Identical values can stand only once. Entries after “also recorded” stand apart in the source; their conditions may differ. No end group written: not given here.

The nature of series [1]: Critical micelle concentration (CMC) by Dynamic Light Scattering. Format: physicochemical. How it is done: The CMC of the amphiphilic peptides was determined by Dynamic Light Scattering (DLS) experiments (PDDLS/Batch setup, Precision Detectors, Franklin, Mass.). Solutions of different peptide concentrations were prepared in PBS and were filtered through 0.4 urn pore size filters prior to measuring. Scattered light was detected at 90° and the number of photons reaching the avalanche photodiode was recorded. The solvent viscosity and the refractive index of the buffer were taken as 0.894 cP and 1.33, respectively, at […]. Data were acquired in triplicates and processed by the Precision Deconvolve program, […]

Series [2] can be described thus: AFM imaging of peptide nanovesicles on mica. Format: physicochemical. Particulars: for Vesicle diameter, AFM analysis: individual nanovesicles; for Vesicle diameter, AFM analysis / Beads diameter, AFM analysis (necklace-like formations): dry state on mica; for number of nanovesicles per necklace: AFM image analysis; for Clusters diameter, AFM analysis: nanovesicle clusters, dry state. On the procedure:
For the AFM experiments, 3 uL were removed from the peptide vesicle dispersions (20 mg/mL of peptides in PBS that has been filtered through 0.2 um filters) and deposited on a freshly cleaved mica surface (G250-2 mica sheets 2.5×2.5×0.015 cm; Agar Scientific Ltd, Essex, UK). The bare surface of mica is smooth (rms is about 0.4 nm). Before imaging, each sample was left on mica for 1 min, rinsed with 200 uL of water (Millipore), and dried in a nitrogen gas stream. Images were obtained immediately in air using a Veeco MultiMode NanoScope 3D Controller Scanning Probe Microscope (Digital Instruments, Santa Barbara, Calif.) operated in tapping mode. AFM imaging (512×512 pixels) was performed using soft silicon probes (FESP; nominal length lnom=225 um, width wnom=28 um, tip radius Rnom=8 nm, resonant frequency νnom=75 kHz, spring constant knom=2.8 N m^−1; Veeco Instruments SAS, Dourdan, France). Typical scanning parameters were tapping frequency 73 kHz, integral and proportional gains 0.2 and 0.4, respectively, set point 0.7-1.0 V, and scanning speed 1.0-1.5 Hz. The Nanoscope image processing software was used to obtain height patterns, cross sections, and MIS of the peptide nanovesicles. Images were collected from two different samples at random spot surface sampling (at least five areas).

Series [3] is described as follows: Hydrophobic drug uptake and release (Nile red). Type of series: physicochemical. Particulars: for Nile red emission maxima: Nile red in peptide nanovesicles; for release kinetics of Nile red through peptide nanovesicles (in words): PBS pH 7.4, 20° C.; for retention of Nile red molecules (in words): compared to KA6-CONH2 and DA6-COOH vesicles. How it is done:
The hydrophobic fluorescent probe Nile red was used as a probe molecule to study the peptide nanovesicle bilayer. […] The “thin film” method was used for the preparation of the dispersions. Briefly, 0.2 mg of the amphiphilic peptide was dissolved in ethanol and subsequently the organic solvent was removed under vacuum in a rotary evaporator. Then the produced thin film was rehydrated with 1 mL of PBS, pH 7.4 containing 3.14 uM Nile red. Prior to analysis the dispersions were bath sonicated for 30 minutes. All spectra were recorded at room temperature with excitation and emission slit widths set at 5 nm (RF-5301 PC Shimatzu spectrophotometer). The excitation wavelength was at 546 nm and the emission spectra were recorded from 550 to 700 nm.

A short description of series [4]: Release of carboxyfluorescein (CF) through peptide vesicles. Format: physicochemical. The settings on record: for CF retention / release (in words): PBS pH 7.4. How it is done:
To determine whether the peptide vesicles can be used for drug delivery we measured the release kinetics of the hydrophilic fluorescent probe 5,6-carboxyfluorescein (CF) through the peptide bilayer assemblies. The peptide powder was added into the CF solution in PBS and the suspension was probe-sonicated for 10 min followed by equilibration for 1 hour. Encapsulated CF is strongly quenched and therefore, only the released CF contributes to the fluorescence intensity signal. Released CF was removed by centrifugation at 11,000 rpm for 25 min using Microcon YM-10 membrane tubes (10 kDa cut-off). Then the vesicles were re-suspended in PBS and incubated for 1 hour at 20° C. The newly released CF during incubation was collected by centrifugation through the Microcon membrane and the fluorescence intensity was measured. This process was repeated every 1 hour and a graph was created to show the release kinetics of CF as a function of time.

Series [5] can be described thus: Microelectrophoretic mobility (ζ-potential) measurements. Type of series: physicochemical. The settings on record: PBS pH 7.4, 20 mg/mL peptide. On the procedure: To determine the ζ-potential of the peptide nanovesicle formulations we used a Nano ZetaSizer (Malvern Instrument, UK) equipped with an avalanche photodiode as detector and a 4 mW He—Ne laser operated at 633 nm. Data were acquired by laser Doppler velocimetry and phase analysis light scattering (PALS). The self-assembling peptides were dispersed in PBS at a concentration of 20 mg/mL, which is above their CMC, and equilibrated for 30 min at 25° C. prior to detection. Microelectrophoretic data were obtained using the Henry-Smoluchowski equation.

A further series deals with Caco-2 cell monolayers. The experiment in a line: FITC-dextran 4.4 kDa permeability through Caco-2 monolayer. The settings on record: for Enhancement ratio (FITC-dextran): R=Papp(peptide)/Papp(control); for enhancement of FITC-dextran transport compared with the control: 1.0 mgmt peptide; for Papp of FITC-dextran 4.4 kDa: apical to basolateral. (In general: Caco-2 cells form a polarised layer with tight junctions and transporters.)

A short description of series [6]: Particle size determination by DLS. The settings on record: PBS pH 7.4, 25° C. Format: physicochemical. How it is done:
Prior to measuring particle sizes by DLS, the peptide vesicle formulations in PBS were filtered through 0.4 um filter to remove vesicle aggregates. Normalized intensity-time correlation functions g^(2) (q,t)=I(q,t)I(q,0))/I(q,01))^2 were measured over a broad time scale (from 10^−7 s to 10^4 s) using a full multiple tau digital correlator (ALV-5000FAST) with 280 channels spaced quasi-logarithmically. The scattering wavevector q=4πn sin(θ/2)/λo depends on the scattering angle θ (herein we used 0=90°), the laser wavelength λo, and the refractive index of the medium n, We used the 671 nm line from a diode pumped solid state laser which operated at a power of less than 5 mW. The scattered light was collected by a single-mode optical fiber (coherence factor ˜0.95), transferred to an avalanche photo-detector and then to the digital correlator for analysis. Accumulation times were of the order of few seconds due to the strong scattered intensity from the dispersions. To check the reproducibility of the results, several time correlation functions were recorded for each peptide vesicle system dilute suspensions the normalized electric-field time auto-correlation function g^(1)=(E(q,t)E*(q,0))/(E(q,0))^2 is related to the experimentally recorded intensity autocorrelation function g^(2) (q,t)^2 through the Siegert relation g^(2) (q, t)=B[1+f*|g(1)(q,t)|^2 where B describes the long delay time behavior of g^(2) (q, t) and f* represents an instrumental factor obtained experimentally from measurements of a dilute polystyrene/toluene solution. In our case, the optical fiber collection results in f*˜0.95. The electric-field time correlation function g^(1)(t) (for simplicity we drop the q-dependence) was analyzed as a weighted sum of independent exponential contributions, i.e., g^(1)∫L(τ)exp(−t/τ)dτ=∫L(ln τ)exp(−t/τ)d in τ. The distribution of relaxation times L(lnr)=τL(τ) was obtained by inverse Laplace transformation of g<′>(q,t) using the CONTIN algorithm.
The apparent hydrodynamic radii of the suspended particles were determined using the Stokes-Einstein relation Rh=kBT/6πηD, where kB is the Boltzmann constant, η is the viscosity of the solvent, and D the diffusion coefficient of the particle. The latter is determined by D=1/t q^2. where τ is the relaxation time of g(^1) (q,t).

Another series has as its target P-glycoprotein (Homo sapiens, UniProt P08183). The experiment in a line: Transepithelial transport of Rhodamine-123 (basolateral to apical). The settings on record: control additions: 100 uM Verapamil or 1% SDS.

Chain of P-glycoprotein (P08183 whole entry): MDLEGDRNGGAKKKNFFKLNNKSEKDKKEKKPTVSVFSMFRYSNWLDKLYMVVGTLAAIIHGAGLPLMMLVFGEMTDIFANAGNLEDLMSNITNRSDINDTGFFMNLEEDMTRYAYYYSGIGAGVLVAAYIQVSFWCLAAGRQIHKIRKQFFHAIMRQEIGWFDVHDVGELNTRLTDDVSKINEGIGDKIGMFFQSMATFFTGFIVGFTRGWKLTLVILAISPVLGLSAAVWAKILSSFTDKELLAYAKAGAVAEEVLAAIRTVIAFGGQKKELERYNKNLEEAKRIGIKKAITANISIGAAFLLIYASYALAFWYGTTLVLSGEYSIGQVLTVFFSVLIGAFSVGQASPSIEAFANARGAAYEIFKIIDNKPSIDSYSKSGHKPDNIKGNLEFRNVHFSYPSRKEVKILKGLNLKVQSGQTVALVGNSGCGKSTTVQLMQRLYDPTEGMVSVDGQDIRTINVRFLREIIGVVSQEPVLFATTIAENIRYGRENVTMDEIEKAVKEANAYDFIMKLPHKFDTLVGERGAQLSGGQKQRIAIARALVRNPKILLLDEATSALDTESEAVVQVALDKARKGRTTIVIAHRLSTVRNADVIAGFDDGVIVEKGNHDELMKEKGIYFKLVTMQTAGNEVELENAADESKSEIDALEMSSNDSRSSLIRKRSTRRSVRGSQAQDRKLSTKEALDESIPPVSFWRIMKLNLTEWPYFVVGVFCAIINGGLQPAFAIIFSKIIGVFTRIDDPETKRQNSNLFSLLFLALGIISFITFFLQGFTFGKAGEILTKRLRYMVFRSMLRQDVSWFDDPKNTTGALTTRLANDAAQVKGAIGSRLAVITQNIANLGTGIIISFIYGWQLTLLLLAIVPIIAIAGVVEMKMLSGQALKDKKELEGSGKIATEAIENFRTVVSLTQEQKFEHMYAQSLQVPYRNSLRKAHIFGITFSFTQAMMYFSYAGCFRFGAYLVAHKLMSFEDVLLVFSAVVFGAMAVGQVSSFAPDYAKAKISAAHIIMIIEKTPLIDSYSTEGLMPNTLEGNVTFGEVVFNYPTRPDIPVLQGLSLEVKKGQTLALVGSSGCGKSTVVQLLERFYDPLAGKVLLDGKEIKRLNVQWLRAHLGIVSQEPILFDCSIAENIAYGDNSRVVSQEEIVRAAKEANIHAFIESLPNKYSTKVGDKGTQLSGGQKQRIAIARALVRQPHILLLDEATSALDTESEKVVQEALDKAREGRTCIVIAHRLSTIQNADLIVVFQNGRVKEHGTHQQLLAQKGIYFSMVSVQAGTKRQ
Description for Caco-2 cell monolayers: Caco-2 cells were seeded at a density of 2×10^5 cells/cm^2 on 24-well 6.5 mm Transwell polyester membrane inserts (0.4 um pore size, Corning Costar, Cambridge, Mass.). The medium was changed every 2-3 days in both sides of the Transwell membrane. After 20 days the growth medium was replaced with 10 mM HBSS/HEPES buffer pH 7.4 and studies of the cell-monolayer integrity and permeability were performed.
For the permeability assay, we added in the apical side of the Transwell 1 mg/mL FITC-dextran MW 4.4 kDa (Sigma) in 10 mM HBSS/HEPES buffer pH 7.4 with and without 0.2 or 1.0 mg/mL of self-assembling peptides. At each time point, samples were withdrawn from the basorateral side and the amount of FITC-dextran was measured using a fluorescence 96-well plate reader. The excitation and emission wavelengths were 490 nm and 530 nm, respectively. Results were expressed as cumulative transepithelial transport of FITC-dextran as a function of time. All measurements were done in triplicates and expressed as mean±S.D. The apparent permeability coefficient was calculated according to Papp=(dQ/dt)/(dt)/(ACo) in cm/s, where dQ, is the cumulative amount of FITC-dextran in the basolateral side at time t, (dQ/dt) in pmol/s is the permeability rate, Co is the initial concentration of FITC-dextran in the apical side and A is the area of the monolayer. The enhancement ratio R equals to R=(Papp(peptide)/Papp(control)).
Description for Caco-2 cells: Caco-2 cells (passage 40) were grown at 37° C. in tissue culture flasks with Dubelco's Modified Essential Medium (DMEM) supplemented with 10% v/v FBS (Fetal Bovine Serum) 1% nonessential amino acids and 100 ug/mL penicillin and streptomycin in humidified atmosphere containing 5% v/v CO2. The medium was changed every 2-3 days until cells reach 80% confluence and then were subcultured by trypsinization.
The effect of self-assembling peptides on cell viability and cell proliferation was investigated using the MTT colorimetric assay (Sigma). Caco-2 cells were cultured into the wells of 96-well plates using growth medium until a density of 4×10^3 cells/cm^2 was reached. Then we replaced the growth medium with fresh growth medium containing 0.2 or 1.0 mg/mL self-assembling peptides and the cells were incubated for 3, 24 and 48 h at 37° C. Then 10 uL of MTT reagent was added in each of the wells and the plates were incubated for 3 hat 37° C. Then 100 uL of the detergent solution was added and the plates were stored in the dark for 3 h to dissolve the formazan product. The optical density was measured at 600 nm in a Teknika® ELISA Plate spectrophotometer.
Description for P-glycoprotein: C18 150 mm×46 mm, 3.5 um analytical column, flow rate 0.85 ml/min, detector was set at 500 nm) [15]. The mobile phase, which consisted of acetonitrile, 20 mM sodium acetate buffer pH 4.0, and water containing 1.5 mM. […] Before the end of the experiment, the transepithelial resistance was measured to ensure that the cell monolayer integrity had not been affected by the experimental conditions.

For the molecule KAAAAAA-NH2 [KA6-CONH2], in series [1], the “CMC in PBS” value stood at 0.07 mg/mL. Besides, in series [2], the “Vesicle diameter, AFM analysis” value is given as 169 ± 29 nm. In addition, the “Nile red emission maxima” value in series [3] (PBS pH 7.4) stood at 623 nm. The “CF retention / release (in words)” value in [4] (listed as KA6-CONH) is “did not retain CF”. In addition, the ζ-potential in series [5] came to 12.4±0.9 mV. Moreover, the “Enhancement ratio (FITC-dextran)” value in the series with Caco-2 cell monolayers (0.2 mg/ml peptide) is on record as 4.0. Also, the “Enhancement ratio (FITC-dextran)” value in the series with Caco-2 cell monolayers (1.0 mg/ml peptide) was 5.1. The “enhancement of FITC-dextran transport compared with the control” value (shortened to “enhancement … compared with the control”) in the series with Caco-2 cell monolayers stood at 5.1 fold. Besides, in series [6], the “Vesicle diameter, DLS analysis” value was 164 (65-350) nm and the “average diameter of second DLS peak (probably aggregates of individual vesicles)” value came to 906 nm.

Regarding “acetyl-AAAAAAK-CONH2 (Ac-AAAAAAK-NH2) [Ac-A6K-CONH2, amphiphilic surfactant-like self-assembling peptide forming nanovesicles]”, the “CMC in PBS” value in series [1] came to 0.16 mg/mL. In addition, the “Vesicle diameter, AFM analysis” value in series [2] was determined as 126 ± 23 nm. In addition, the “Vesicle diameter, AFM analysis” value in [2] (listed as ac-A6K-CONH2) was around 126 nm. Also, in [3] (PBS pH 7.4), the “Nile red emission maxima” value was found to be 631 nm and the “Nile red fluorescence yield compared to other peptide nanovesicle systems” value is “significantly higher”. In series [3], the “release kinetics of Nile red through peptide nanovesicles (in words)” value is on record as “release was slower” and the “retention of Nile red molecules (in words)” value was “retain higher numbers of Nile red molecules”. In [4], the “CF retention / release (in words)” value was “significantly retained the negatively charged CF”. Also, in [4] (after 7 h, PBS pH 7.4, 20° C.), the “CF release through peptide nanovesicles” value is recorded as “approximately 50%”. The ζ-potential in [5] is recorded as 8.5±0.3 mV. Besides, the Caco-2 cell viability result in the series on Caco-2 cells is on record as “exceeding 100%”. Moreover, in the series on Caco-2 cell monolayers (0.2 mg/ml peptide), the “Papp of FITC-dextran 4.4 kDa” value is 1.20 ± 0.36 10^-5 cm/s and the “Enhancement ratio (FITC-dextran)” value is given as 4.4. In the series with Caco-2 cell monolayers (1.0 mg/ml peptide), the “Papp of FITC-dextran 4.4 kDa” value was 1.51 ± 0.37 10^-5 cm/s and the “Enhancement ratio (FITC-dextran)” value was found to be 5.7. In addition, the “enhancement … compared with the control” value with Caco-2 cell monolayers is on record as 5.7 fold. Besides, the “Vesicle diameter, DLS analysis” value in series [6] is recorded as 122 (30-173) nm. Besides, the “Vesicle diameter, DLS analysis” value in [6] (listed as ac-A6K-CONH2) is given as 122 nm.

As to `CCCCCCCCCCCCOS(=O)(=O)[O-].[Na+]` [SDS 1%], the “Enhancement ratio (Rhodamine-123)” value at P-glycoprotein is 3.0. Besides, the “Papp of Rhodamine-123” value on P-glycoprotein (basolateral to apical) is recorded as 3.28 ± 0.02 10^-5 cm/s.

As for “acetyl-AAAAAAD-COOH (Ac-AAAAAAD-OH) [Ac-A6D-COOH, amphiphilic surfactant-like self-assembling peptide forming nanovesicles]”, the “CMC in PBS” value in [1] came to 0.05 mg/mL. In series [2], the “number of nanovesicles per necklace” value is 23±3 and 23; the “Beads diameter, AFM analysis (necklace-like formations)” value (“Beads diameter, AFM analysis” below) is listed as 200 ± 11 nm; the “Vesicle diameter, AFM analysis” value is 28 ± 9 nm; the “Clusters diameter, AFM analysis” value is reported as 101 ± 11 nm. Moreover, in series [2] (listed as ac-A6D-COOH), the “Beads diameter, AFM analysis” value was determined as 200±11 nm; the “Vesicle diameter, AFM analysis” value was 28±9 nm and ~43 nm; the “Clusters diameter, AFM analysis” value is 101±11 nm. Besides, the “Nile red emission maxima” value in [3] (PBS pH 7.4) amounted to 626 nm. Further, in [3], the “release kinetics of Nile red through peptide nanovesicles (in words)” value is “release was slower” and the “retention of Nile red molecules (in words)” value is recorded as “to a lesser extent”. The “CF retention / release (in words)” value in series [4] was “only a small CF retention efficiency”. The “initially loaded CF retained by vesicles” value in series [4] (after 7 h, PBS pH 7.4, 20° C.) is listed as 13%. In series [5], this molecule registered a ζ-potential of −15.4±1.1 mV. Also, in the series with Caco-2 cells, the Caco-2 cell viability result is reported as “exceeding 100%”. Further, in the series on Caco-2 cell monolayers (0.2 mg/ml peptide), the “Papp of FITC-dextran 4.4 kDa” value was 1.82 ± 0.24 10^-5 cm/s and the “Enhancement ratio (FITC-dextran)” value stood at 6.7. For the same molecule, in the series on Caco-2 cell monolayers (1.0 mg/ml peptide), the “Papp of FITC-dextran 4.4 kDa” value is recorded as 2.13 ± 0.16 10^-5 cm/s and the “Enhancement ratio (FITC-dextran)” value came to 7.9. In addition, the “enhancement … compared with the control” value with Caco-2 cell monolayers came out at 7.9 fold. Also, the “Vesicle diameter, DLS analysis” value in series [6] is 97 (30-320) nm. Besides, the “Vesicle diameter, DLS analysis” value in series [6] (listed as ac-A6D-COOH) is 97 nm.

On to DAAAAAA-OH [DA6-COOH], for which, in series [1], the “CMC in PBS” value was 0.12 mg/mL. In series [2], the “number of nanovesicles per necklace” value is 11±2 and 11; the “Beads diameter, AFM analysis” value was 159±26 nm; the “Vesicle diameter, AFM analysis” value came to 43 ± 11 nm; the “Clusters diameter, AFM analysis” value was determined as 135±24 nm. Besides, the “Vesicle diameter, AFM analysis” value in [2] (listed as DA6-COON) is reported as 43±11 nm. Also, in [3] (PBS pH 7.4), the “Nile red emission maxima” value is 647 nm. In [4], the “CF retention / release (in words)” value was “Fast CF release; also recorded: did not retain CF”. The same molecule yielded a ζ-potential in series [5] of −14.0±1.1 mV. Also, the “Enhancement ratio (FITC-dextran)” value with Caco-2 cell monolayers (0.2 mg/ml peptide) was 5.0. For the same molecule, the “Enhancement ratio (FITC-dextran)” value with Caco-2 cell monolayers (1.0 mg/ml peptide) is 6.6. For the same molecule, the “enhancement … compared with the control” value in the series with Caco-2 cell monolayers is 6.6 fold. In series [6], the “Vesicle diameter, DLS analysis” value is on record as 137 (64-725) nm.
